Results: patent US20210172932A1 (published 2021)

B1: Tocilizumab (antibody)
chain 1: not shown
chain 2: not shown
B2: Vedolizumab (antibody)
chain 1: not shown
chain 2: DVVMTQSPLSLPVTPGEPASISCRSSQSLAKSYGNTYLSWYLQKPGQSPQLLIYGISNRFSGVPDRFSGSGSGTDFTLKISRVEAEDVGVYYCLQGTHQPYTFGQGTKVEIKRTVAAPSVFIFPPSDEQLKSGTASVVCLLNNFYPREAKVQWKVDNALQSGNSQESVTEQDSKDSTYSLSSTLTLSKADYEKHKVYACEVTHQGLSSPVTKSFNRGEC
B3: Emicizumab (bispecific antibody)
chain 1: DIQMTQSPSSLSASVGDRVTITCKASRNIERQLAWYQQKPGQAPELLIYQASRKESGVPDRFSGSRYGTDFTLTISSLQPEDIATYYCQQYSDPPLTFGGGTKVEIKRTAAAPSVFIFPPSDEQLKSGTASVVCLLNNFYPREAKVQWKVDNALQSGNSQESVTEQDSKDSTYSLSSTLTLSKADYEKHKVYACEVTHQGLSSPVTKSFNRGEC
chain 2: QVQLVESGGGLVQPGGSLRLSCAASGFTFSYYDIQWVRQAPGKGLEWVSSISPSGQSTYYRREVKGRFTISRDNSKNTLYLQMNSLRAEDTAVYYCARRTGREYGGGWYFDYWGQGTLVTVSSASTKGPSVFPLAPCSRSTSESTAALGCLVKDYFPEPVTVSWNSGALTSGVHTFPAVLQSSGLYSLSSVVTVPSSSLGTQTYTCNVDHKPSNTKVDKRVESKYGPPCPPCPAPEFLGGPSVFLFPPKPKDTLMISRTPEVTCVVVDVSQEDPEVQFNWYVDGVEVHNAKTKPREEQYNSTYRVVSVLTVLHQDWLNGKEYKCKVSNKGLPSSIEKTISKAKGQPREPQVYTLPPSQKEMTKNQVSLTCLVKGFYPSDIAVEWESNGQPENNYKTTPPVLDSDGSFFLYSKLTVDKSRWQEGNVFSCSVMHEALHNRYTQKSLSLSPEQKLISEEDLNAVGQDTQEVIVVPHSLPFKVVVISAILALVVLTIISLIILIMLWQKKPR
chain 3: QVQLVQSGSELKKPGASVKVSCKASGYTFTDNNMDWVRQAPGQGLEWMGDINTRSGGSIYNEEFQDRVIMTVDKSTDTAYMELSSLRSEDTATYHCARRKSYGYYLDEWGEGTLVTVSSASTKGPSVFPLAPCSRSTSESTAALGCLVKDYFPEPVTVSWNSGALTSGVHTFPAVLQSSGLYSLSSVVTVPSSSLGTQTYTCNVDHKPSNTKVDKRVESKYGPPCPPCPAPEFLGGPSVFLFPPKPKDTLMISRTPEVTCVVVDVSQEDPEVQFNWYVDGVEVHNAKTKPREEQYNSTYRVVSVLTVLHQDWLNGKEYKCKVSNKGLPSSIEKTISKAKGQPREPQVYTLPPSQEEMTKNQVSLTCLVKGFYPSDIAVEWESNGQPENNYKTTPPVLDSDGSFFLYSKLTVDKSRWQEGNVFSCSVMHEALHNHYTQESLSLSPEQKLISEEDLNAVGQDTQEVIVVPHSLPFKVVVISAILALVVLTIISLIILIMLWQKKPR
B4: Pembrolizumab (antibody)
chain 1: not shown
chain 2: EIVLTQSPATLSLSPGERATLSCRASKGVSTSGYSYLHWYQQKPGQAPRLLIYLASYLESGVPARFSGSGSGTDFTLTISSLEPEDFAVYYCQHSRDLPLTFGGGTKVEIKRTVAAPSVFIFPPSDEQLKSGTASVVCLLNNFYPREAKVQWKVDNALQSGNSQESVTEQDSKDSTYSLSSTLTLSKADYEKHKVYACEVTHQGLSSPVTKSFNRGEC

What follows are binders tested against T1, human FcRn (immobilized on nickel-nitrilotriacetic acid-coated biosensors) (human, UniProt P55899 24-297; P61769 21-119) (assay: BLI (Octet RED), FcRn on Ni-NTA biosensor, pH 6.0).
T1 construct: also called neonatal Fc receptor

Kd	Binder
460 nM	B1
610 nM	B2
1230 nM	B3
290 nM	B4
